# Experiment: soluble on expression in E. coli; label from the status in PepcDB or PDB records
row,Sequence,soluble on expression in E. coli
1,MKIVIAPDSFKESLTAQQVAEAIKRGFQQSIADVECLLCPVGDGGEGTVDAIRHSLDLEEKCLQVTGSFGQKEVMRYFQKEQLALFEVADLVGLGKIPLEKRNPLQIQTRGIGELIRHLISQEIKEIYIGVGGTASNDGGIGIAAGLGYQFYDEDGNALPACGQSLLNLASVSTENRYKIPEDVHIRILADVVSPLCGHQGATYTFGKQKGLDSTMFEVVDQAIQDFYEKVSPATLKLKGAGAGGGIAGGLCAFAQASIVSGIDTCLDLIDFDKKVSDVDLVIVGEGRLDRQSLAGKAPIGVAKRTPVGVPVVAICGSLVEDLPSLPFENIQAAFSILEKSEPLEDSLKNASLYLEHTASNIGHLLNMPKI,soluble
2,MKIVIDLMGADHGVLPIIEGVSRALENKSFSVVLVGDKDKATPFISKELASKVEMIHTQDYIKMEEAATEAIKRKESSIYLGMDILKNGADALISAGHSGATMGLATLRLGRIKGVERPAICTLMPSVGKRPSVLLDAGANTDCKPEYLIDFALMGYEYAKSVLHYDSPKVGLLSNGEEDIKGNTLVKETHKMLKAYDFFYGNVEGSDIFKGVVDVVVCDGFMGNVVLKTTEGVASAIGSIFKDEIKSSFKSKMGALMLKNAFGILKQKTDYAEYGGAPLLGVNKSVIISHGKSNARAVECAIYQAISAVESQVCLRITQAFESLKSQSFESQSDQQDA,not soluble
3,MKIYLMRHTSVLFNGNEHCYGFTDVDVRDTFEEEAAAACARLKGLDPEAVFTSPLQRAAKLAAFCGYPDAIRDDRLKEMNFGDWEGKPWEEILDTTDIEAFFRRYIDEPVSGGESQREQFERVRDFILEKKAAGYRSILIFCHGGVINCARTLVGQCTLESAFASLPPFGSLTELIL,not soluble
4,MKKALLVVSFGTSYHDTCEKNIVACERDLAASCPDRDLFRAFTSGMIIRKLRQRDGIDIDTPLQALQKLAAQGYQDVAIQSLHIINGDEYEKIVREVQLLRPLFTRLTLGVPLLSSHNDYVQLMQALRQQMPSLRQTEKVVFMGHGASHHAFAAYACLDHMMTAQRFPARVGAVESYPEVDILIDSLRDEGVTGVHLMPLMLVAGDHAINDMASDDGDSWKMRFNAAGIPATPWLSGLGENPAIRAMFVAHLHQALNMAVEEAA,soluble
5,MKKDIGDHLISKLDLQDIAKVLSDELSGSELNTVLLDIFNKRVQQETPSSLLSKYEGNKLVKPALLEDVLEYKEKELRCYKLIAGRGFEPIELSPVAQFGTNSVIATVDQKKVLTSLRNTEVQADPTNTIALHYASLKKKGELDNKTYNYSNISRVIRTQVFNNPNFTPHFTVLALISCGRDTGSFNFEKEELLKHLTTSYEICKSYGVEKIYYEIIPCKGYDSQSPLIMESISYVRKKNSNLEVLVIAPEHDNNYYHGFRIKQQIVIGGNTIEIADGGLLDWTQQLLTNKKERMMTFGLGIQVLYHLTK,soluble
6,MKKDWQEQLPLNHIRDIKTVSGGDVNEAFKVTTEDDVYFLLVQRNRDKSFYAAEIAGLNAFEEAGVTAPHVIDSGEINGDAFLILSYLDEGTTGSQRELGQLVAKMHSQQQSDGKFGFDLPHEGGDISFDNTWSDSWIEIFVERRMDHLRDELMRKGLWNDEDNKVYEQVRTVMVNELENHNSNPSLLHGDLWGGNYMFLTDGSPALFDPAPFYGDREFDLGITTVFGGFTREFYDEYEKHYPLGKGSRKRLEFYRLYLFMVHLLKFGGMYASSVNRSMDEILALEHHHHHH,soluble
7,MKKEIIVYTISDSLGETSQKLLAAASAQYPDISFLNRYNFSFVTTEEELLEILKDALKDKALVVSTLVSKQLITAAKEFSERTGLLYLDLMAPFFELIQAKAGVDPIEEPGRRHQLDRAYFDKISAIEFAVKYDDGKNPQGFLDSDILLLGVSRTSKTPVSMYLANQGYRVSNLPLIPEVPLPPILEEMDPQKMIGLVCSPETLGQIRSSRLASLGLGNETSYTNVERIEQELAYAEEIFAKYGIPVIDVTAKSVEETAFLIKEKLDERNLEHHHHHH,soluble
8,MKKEPLFVALSNQKGGVGKSTLTVLLASYFHYHKAKNVLVVDCDYPQHSMMTLREWDIKNVEKTPRLQSLLVEQFGDTGRKAYNILASMPEQAKETAYGFIDRSDTEYDLVLLDLPGTVNTTGVFQSIINMDYVFTPITQERMVMQSSMSFVLSIREYLLHHKGVPLRDIHMFWNKMDKRVSRDLYDAYMEIIRSLGLPVLNTVLPAAERYKKDVGLNGQIFRSTLFPPSAAALKGSNFDLLAAEMETILGL,not soluble
9,MKKETKPRVVVIGGGTGLPVILKGLKKKDIHLTAIVTVADDGGSSGKIREQMDVLPPGDIRNVMLALSNVDPRVVDLFQYRFAVDGDLSGHVIGNLILTALSQLNDSYVDAINVLATVLKIRGKVIPATDQPLILNAEMEDGSIVHGESLIPLQGKHINRVYIEPENVKPYPTAVEAVKEADLIVIGPGSLYTSILPNLLLTELADEITASKAPKVYITNILTQIGETDFFSDADHIKVIHEHVGKSFIDKTLINTTTVPKELLFPEDVAQVEHNAKGMEELGVEAIYQDFLSTEDGLVRHAAEKVADALLAMLPNQTNEKELEHHHHHH,soluble
10,MKKFKNILFATQGLPGHSDALEQAIQLAYNNRGQLAGLIAFPAFPADLQRYQEPYEQSYLNTLMETVEACRSQHHIHKDEVPFPLMVEHSEQPAVAIIKSALNHHIDLLIKEAEPMTHSQQGFKALDMTLLRKCPCPVWLHR,not soluble
11,MKKFLTQVFTWWNGQTLGTRFHTWRKGERVGEDEFGNVYYQGGKDSEGRTRRWVIFNGYSEASTIPPGWHGWMHHRVDTPPSKEDYRPREWQKPHLQNLTGSPLAYRPKGSIALPGAQPAERPRVTGEYDAWTPGNLEHHHHHH,not soluble
12,MKKIAVFADVQNLYYTVRQAYGCHFNYAALWADISKRGEIVHAFAYAIDRGDSKQQQFQQILRNLGFTVRLKPYIQRSDGSAKGEWDVGITIDIMDFAPQVDEVVLASGDGDFDMLLDRVISKHGVEAVAYGVPGLTANSLIRAASRYVPIEGALL,soluble
13,MKKIKLGFAPTRRSIFSAPDAVKYRGLTAQRLKELGVDFVDITDINEEGLLYDDKDVDKIVEKFKKEGVDGLMLPHCNFGTEYVCARLAKKLDVPVLLWGPLDERPEPNGVRLRDTQCGLFATGKVLRRFQIPFTYLTNCRLNDPVFERGVKDFLAVCNVVKTFKNIRILQISTRPFDFWTTMCNEGELLEKFNIQLAPVPMTELTEEVKTVREDKEKMEQMIAYIKDTMVIKIKEEEVEMVAALALAMKSLVEKYGCQAAAIQCWNALQTEIGIMPCAANAILNEQGIPVVCETDIHGAVTALLAEAAGMDEKRGFFADWTIRHPDIENGELLQHCGPWPMSVAQEKPELTYPLAFEHPGSLTAEAKHGEVTLCRFDGDNGEYSLLLGNAKGVDGPKGMGTYLWVEVENIKRLEAKIVEGPYIHHCVGIHKNVVPVLYEACKYIGVKPDLYDPIEEDVKAYLRGE,not soluble
14,MKKILLLNGPNLNMLGKREPHIYGSQTLSDIEQHLQQSAQAQGYELDYFQANGEESLINRIHQAFQNTDFIIINPGAFTHTSVAIRDALLAVSIPFIEVHLSNVHAREPFRHHSYLSDVAKGVICGLGAKGYDYALDFAISELQKIQLGEMMNG,soluble
15,MKKLEIEFEQVVKQYKNTIYTVCFMFSKDSREVNDLFQDVLVNLWKGFDTFKGESNIGTWIWRVSLNTCISSDRKKKIVSVPLIMGIDLFEDRDEDTTQIKMLYNRISRLKHFDRAIVLLWLENFSYEEIAAIVGISVKNVSVRLFRIKEELKKMSNN,not soluble
16,MKKLMITQEAGVATVLIKNPPVNILTIDLINELNAFILSLKDDRETKVVVFKSFHEAFFIAHLDLNVINGTSGGQAASIEFNHMIANIKAMKQLSIAVVDGVARGGGNEFVMACDLAYGTENSAFAQPELYINIPTGGQGAVQFARRLGKGKALQALLTGADFTAQQAETLNIITQFVLKAELDVFLAQLLSVIVGWEIRDIVMYKEIIAASIKDEAVGTELELRYFLERAREEKTQTIIAAFLKH,soluble
17,MKKPFSKLFGLKNKDDIIGHIEEDRNSNVESIQIERIVPNRYQPRQVFEPNKIKELAESIHEHGLLQPIVVRPIEEDMFEIIAGERRFRAIQSLNLPQADVIIRDMDDEETAVVALIENIQRENLSVVEEAEAYKKLLEIGDTTQSELAKSLGKSQSFIANKLRLLKLAPKVLLRLREGKITERHARAVLSLSDSEQEALIEQVIAQKLNVKQTEDRVRQKTGPEKVKAQNLRFAQDVTQARDEVGKSIQAIQQTGLHVEHKDKDHEDYYEIKIRIYKR,not soluble
18,MKKPNHSGSGQIRIIGGQWRGRKLPVPDSPGLRPTTDRVRETLFNWLAPVIVDAQCLDCFAGSGALGLEALSRYAAGATLIEMDRAVSQQLIKNLATLKAGNARVVNSNAMSFLAQKGTPHNIVFVDPPFRRGLLEETINLLEDNGWLADEALIYVESEVENGLPTVPANWSLHREKVAGQVAYRLYQREAQGESDAD,soluble
19,MKKQNPWIYLNEEEKNQILNFSESYKKFISKFKTEREVTAYALDKAKKLGFINAEEKKNLMPGDKIFYTCREKSVAFAIIGKNPIEDGMNFIVSHTDSPRLDAKPSPISEENELTFIKTNYYGGIKKYQWLSTPLSIRGVVFLKNGEKVEINIGDNENDPVFVIPDILPHLDRKIQRNKKSDEIVEGENLKILIGSLPIETKEKNKVKLATLQLIKEKYKIEEEDFVSSEIEIVPAGTAKDVGFDKALIGAYGQDDKICVFTSLESIFDLEETPNKTAICFLVDKEEIGSTGSTGLDSRYLEYFVSDMIFKIKKSEYNNLHVQKALWNSKSISADVCAAINPLFSSVHDEQNAPQLGYGIPIMKYTGHGGKSMASDADAELVSYIRQLLNKNNIAWQVATLGKVEEGGGGTVAKFLAGYGIRTIDMGPAVISMHSPMEITSKFDLYNAYLAYKAFYRE,soluble
20,MKKTFNLVATAAAGIEAVVGKELRNLGLDCQVENGRVLFKGNIETIAKSNLWLRSADRIKIVVGEFPARTFEELFQGVYALDWENYLPLGCQFPVAKAKSVKSKLHNEPSIQGITKKAIVKKLQHYFHRPDSVPLPENGPEFKIEISLLKDQARVMIDTTGPSLFKRGYRTEKGGAPIKENMAAAIILLSNWFPDKPFVDPTCGSGTFCIEAAMIGMNIAPGFNRDFAFEEWPWVDEALVTRVRNEADEQADYDIQLDISGFDFDGRMVEIARKNAREVGLEDVVKLKQMRLQDFKTNKINGVLISNPPYGERLLDDKAVDILYNEMGETFAPLKTWSQFILTNDTDFEQKFGRKADKKRKLYNGSLKVDLYQFYGQRVKRVLR,soluble
21,MKKTLATLFLLTCLGSSSAYADNALILQTDFSLKDGAVSAMKGVAFGVDHNLKIFDLTHEIPPYNIWEGAYRLYQTASYWPQGSVFVSVVDPGVGTDRKSIVLKTKNGQYFVSPDNGTLTLVAESLGIESVREIDEKANRLKGSEKSYTFHGRDVYAYTGARLASGAITFEQVGPELPAKVVELSYQKAKATKGEVKGNIPILDIQYGNVWSNISDELLNQAGIKLNDTLCVTISEGSRQKYAGKMPYVASFGDVPEGQPMVYLNSLLNVSVALNMDNFAQKHQVASGADWNIDVKKCDK,not soluble
22,MKKTYYLFNPGELSRKDNTIRFVPIQEGENGQEQAGQARYIPVEGISDFYVFGSLRANSSLYNFLGSNDIAVHFFDYYENYTGSFMPRDFLLSGKMLLAQASAYKNKKKRLFLARKFIEGAASNMQKNLAYYNNRGKDMQPMMELIDKYSLRLKETTTIEALMGIEGNIRQAYYDAFNLIIDPFEMGVRSKQPPQNEVNALISFGNMMCYTLCLKAIHQSQLNPTISFLHTPGERRYSLCLDISEVFKPILVDRTIFKVMNKRIIQAKHFDKQLNKCILNPSGKKLFVQAFEERLSETIRHRKLNRSVSFRHLVKLECYKIAKDILGIEEYQPFKMYW,not soluble

# Reference: the DeepSol protein solubility set
